The results in this text go back to patent US10618964B2, “Nanobody against IL-6R” (Ablynx N.V., dated 2020).

Some results are limits rather than exact numbers.

In one experiment the target is IL-6R on TF-1 cells (Homo sapiens (Human), UniProt P08887). Kind of experiment: cell-based or functional assay.
Experiment [1] concerns the target T1, soluble IL-6R in cynomolgous plasma (cynomolgus monkey, UniProt A0A2K5WN54). Kind of experiment: ELISA 2, periplasmic extract; competitor IL-6; cyno plasma. Background: ELISA stands for enzyme-linked immunosorbent assay.
Experiment [2] addresses T2, native soluble IL-6R in human plasma (human, UniProt P08887). Kind of experiment: ELISA 1, periplasmic extract; competitor IL-6; human plasma.
The target in experiment [3] is T2, native soluble IL-6R in human plasma. Kind of experiment: ELISA 3, periplasmic extract; competitor BN-12; human plasma.
The target in experiment [4] is cyno IL-6R on CHO-K1 cells (clone CyIL6R 405) (cynomolgus monkey; human-rhesus). Kind of experiment: FMAT competition; competitor Reference IgG-A647; CHO cells with cyno IL-6R.
For experiment [5], the target named is T1, soluble IL-6R in cynomolgous plasma. The experiment in a line: plasma potency ELISA, purified Nanobody; competitor IL-6; cyno plasma. The method, then: (§1) In this ELISA, plasma was used as a source of native soluble IL-6R. By this assay, we aimed to confirm the alphascreen results and to get a view on the cross-reactivity of the clones towards cynomolgous IL-6R. Human plasma (ELISA 1 and ELISA 3) or cynomolgous plasma (ELISA 2) were pre-incubated with a dilution of the periplasmic extract of the clones together with human IL-6 (50 ng/mL). Subsequently, plasma soluble IL-6R was captured on a B-N12 coated plate and bound IL-6 was detected using anti-IL-6 antibody BAF206 and streptavidin-HRP (ELISA 1 and ELISA 2). The ELISA signal dropped when the Nanobody clone could compete with IL-6 for binding to soluble IL-6R. ELISA 3 was a parallel ELISA in which the detection antibody was replaced by anti-IL-6R antibody BAF227 to exclude false positive competitors, which actually compete with B-N12 (e.g. family 2). Depicted in Table C-5 is the ratio of the OD450 value of the test sample versus the blank OD450 (mock sample). Clones were ordered based on ELISA 1 data.
(§2) A potency ELISA was done with the purified Nanobodies as described in Example 9. Here, different dilutions of each purified Nanobody were incubated with human (ELISA1) and cynomolgous plasma (ELISA2). IC50 values are depicted in Table C-9.

Experiment [6] concerns the target T2, native soluble IL-6R in human plasma. The experiment in a line: plasma potency ELISA, purified Nanobody; competitor IL-6; human plasma. The method, then:
as §1, §2

The target in experiment [7] is human IL-6R on CHO-K1 cells (clone HuIL6R 4D6) (human, UniProt P08887). Kind of experiment: FMAT competition; competitor Reference IgG-A647; CHO cells with human IL-6R. As to the method:
Eleven inhibitory Nanobodies were tested in competition with labelled Reference IgG for binding to CHO cells expressing hIL-6R or cynoIL-6R.

B1: IL6RPMP103C4 (VHH)
VHH: EVQLVESGGGLVEAGGSLRLSCAAAGRTLSSYSMAWFRQAPGKEREFVAIIRGNPSRTYHSDSVKGRFTASRDNAKNTVYLQMNRLEPEDTAVYYCAADPPPFASDYSAPQSYDYWGQGTQVTVSS
The term IC50 denotes the concentration that gives 50% inhibition. A high value points to lower potency. For B1, the “IC50, IL-6-dependent proliferation of TF-1 cells (3H-thymidine)” value with IL-6R on TF-1 cells came to 15.6 nM. Besides, the OD450 ratio sample/blank in experiment [1] was determined as 0.0819; in experiment [2] it was 0.959; in experiment [3] it was 1. Also, the IC50 was 30 nM in experiment [4], 2.7 nM in experiment [5], 1.73 nM in experiment [6] and 37 nM in experiment [7].

B2: IL6RPMP103C7 (VHH)
VHH: EVQLVESGGGLVQAGGSLSLSCATSGRTISDDTMAWFRQAPGKEREFVATITFSGARTHYSDSVRDRFTISRDNAKNTVYLQMDSLKSEDTAVYYCAASTKYYSSTYNYIHPAFYDIWGQGTQVTVSS
As to B2, the “IC50, IL-6-dependent proliferation of TF-1 cells (3H-thymidine)” value with IL-6R on TF-1 cells turned out to be 61.3 nM. Further, the OD450 ratio sample/blank in experiment [1] was found to be 0.175; in experiment [2], 0.413; in experiment [3], 0.948. The IC50 in experiment [4] was 75 nM; in experiment [5], 13.7 nM; in experiment [6], 6.9 nM; in experiment [7], more than 100 nM.
